Where a chain is given by its changes, count along the chain named.
B1: Example 369 (peptide)
peptide: XXEGTFTSDYSIXLDXKAQXDFIEYLIAGGPSSGAPPPS
modifications: D-Tyr1, Aib2, αMeL13, Orn16, K17 conjugated to (2-[2-(2-Amino-ethoxy)-ethoxy]-acetyl)2-(γ-Glu)-CO-(CH2)18-CO2H, Aib20, C-terminal amide (NH2)
B2: Example 359 (peptide)
peptide: B1 peptide with D21E, I23V
modifications: D-Tyr1, Aib2, αMeL13, Orn16, K17 conjugated to (2-[2-(2-Amino-ethoxy)-ethoxy]-acetyl)2-(γ-Glu)-CO-(CH2)18-CO2H, Aib20, C-terminal amide (NH2)
B3: Example 376 (peptide)
peptide: B1 peptide with X16K, D21A, Y25X
modifications: D-Tyr1, Aib2, αMeL13, K17 conjugated to (2-[2-(2-Amino-ethoxy)-ethoxy]-acetyl)2-(γ-Glu)-CO-(CH2)16-CO2H, Aib20, αMeY25, C-terminal amide (NH2)
B4: Example 366 (peptide)
peptide: B1 peptide with D21A, Y25X
modifications: D-Tyr1, Aib2, αMeL13, Orn16, K17 conjugated to (2-[2-(2-Amino-ethoxy)-ethoxy]-acetyl)2-(γ-Glu)-CO-(CH2)18-CO2H, Aib20, αMeY25, C-terminal amide (NH2)
B5: Example 379 (peptide)
peptide: B1 peptide with X16K, D21E, Y25X, A28E
modifications: D-Tyr1, Aib2, αMeL13, K17 conjugated to (2-[2-(2-Amino-ethoxy)-ethoxy]-acetyl)2-(γ-Glu)-CO-(CH2)18-CO2H, Aib20, αMeY25, C-terminal amide (NH2)
B6: Example 368 (peptide)
peptide: B1 peptide with D21E
modifications: D-Tyr1, Aib2, αMeL13, Orn16, K17 conjugated to (2-[2-(2-Amino-ethoxy)-ethoxy]-acetyl)2-(γ-Glu)-CO-(CH2)16-CO2H, Aib20, C-terminal amide (NH2)
B7: Example 377 (peptide)
peptide: B1 peptide with D21A, Y25X
modifications: D-Tyr1, Aib2, αMeL13, Orn16, K17 conjugated to (2-[2-(2-Amino-ethoxy)-ethoxy]-acetyl)2-(γ-Glu)-CO-(CH2)16-CO2H, Aib20, αMeY25, C-terminal amide (NH2)
B8: Example 378 (peptide)
peptide: B1 peptide with X16K, D21E
modifications: D-Tyr1, Aib2, αMeL13, K17 conjugated to (2-[2-(2-Amino-ethoxy)-ethoxy]-acetyl)-(γ-Glu)-CO-(CH2)18-CO2H, Aib20, C-terminal amide (NH2)
B9: Example 373 (peptide)
peptide: B1 peptide with X16K, D21A, Y25X
modifications: D-Tyr1, Aib2, αMeL13, K17 conjugated to (2-[2-(2-Amino-ethoxy)-ethoxy]-acetyl)-(γ-Glu)-CO-(CH2)18-CO2H, Aib20, αMeY25, C-terminal amide (NH2)
B10: Example 293 (peptide)
peptide: B1 peptide with D21E, Y25X
modifications: D-Tyr1, Aib2, αMeL13, Orn16, K17 conjugated to (2-[2-(2-Amino-ethoxy)-ethoxy]-acetyl)2-(γ-Glu)-CO-(CH2)18-CO2H, Aib20, αMeY25, C-terminal amide (NH2)
B11: Example 380 (peptide)
peptide: B1 peptide with D21E, Y25X, A28E
modifications: D-Tyr1, Aib2, αMeL13, Orn16, K17 conjugated to (2-[2-(2-Amino-ethoxy)-ethoxy]-acetyl)2-(γ-Glu)-CO-(CH2)18-CO2H, Aib20, αMeY25, C-terminal amide (NH2)
B12: Example 375 (peptide)
peptide: B1 peptide with D21E, Y25X
modifications: D-Tyr1, Aib2, αMeL13, Orn16, K17 conjugated to (2-[2-(2-Amino-ethoxy)-ethoxy]-acetyl)2-(γ-Glu)-CO-(CH2)16-CO2H, Aib20, αMeY25, C-terminal amide (NH2)
B13: Example 358 (peptide)
peptide: B1 peptide with D21A, I23V
modifications: D-Tyr1, Aib2, αMeL13, Orn16, K17 conjugated to (2-[2-(2-Amino-ethoxy)-ethoxy]-acetyl)2-(γ-Glu)-CO-(CH2)18-CO2H, Aib20, C-terminal amide (NH2)
B14: Example 374 (peptide)
peptide: B1 peptide with X16K, D21E, Y25X
modifications: D-Tyr1, Aib2, αMeL13, K17 conjugated to (2-[2-(2-Amino-ethoxy)-ethoxy]-acetyl)2-(γ-Glu)-CO-(CH2)16-CO2H, Aib20, αMeY25, C-terminal amide (NH2)
B15: Example 367 (peptide)
peptide: B1 peptide with X1Y, X16K, D21E, Y25X
modifications: Aib2, αMeL13, K17 conjugated to (2-[2-(2-Amino-ethoxy)-ethoxy]-acetyl)2-(γ-Glu)-CO-(CH2)18-CO2H, Aib20, αMeY25, C-terminal amide (NH2)
B16: Example 292 (peptide)
peptide: B1 peptide with X16K, D21E, Y25X
modifications: D-Tyr1, Aib2, αMeL13, K17 conjugated to (2-[2-(2-Amino-ethoxy)-ethoxy]-acetyl)2-(γ-Glu)-CO-(CH2)18-CO2H, Aib20, αMeY25, C-terminal amide (NH2)
B17: Example 372 (peptide)
peptide: B1 peptide with X16K, D21E, Y25X
modifications: D-Tyr1, Aib2, αMeL13, K17 conjugated to (2-[2-(2-Amino-ethoxy)-ethoxy]-acetyl)-(γ-Glu)-CO-(CH2)18-CO2H, Aib20, αMeY25, C-terminal amide (NH2)
B18: Example 370 (peptide)
peptide: XXEGTFTSDYSIXLDXKAQXEFIEYLIAGGPSSG
modifications: D-Tyr1, Aib2, αMeL13, Orn16, K17 conjugated to (2-[2-(2-Amino-ethoxy)-ethoxy]-acetyl)2-(γ-Glu)-CO-(CH2)18-CO2H, Aib20, C-terminal amide (NH2)

biological target: human GLP-1 receptor (human, UniProt P43220 24-463); test: cell-based or functional assay

Binder	hGLP1R GTPgS % Top	hGLP1R GTPgS Rel EC50
B1	58.8%	0.381 nM
B2	69.7%	0.496 nM
B3	72.6%	0.326 nM
B4	67.6%	0.409 nM
B5	71%	0.239 nM
B6	68.9%	0.495 nM
B7	68.4%	0.356 nM
B8	68.6%	0.359 nM
B9	65.6%	0.336 nM
B10	70.6%	0.368 nM
B11	66.8%	0.188 nM
B12	70.4%	0.419 nM
B13	72.3%	0.414 nM
B14	67.1%	0.345 nM
B15	89.7%	0.289 nM
B16	71.5%	0.429 nM
B17	69.1%	0.379 nM
B18	63.7%	0.428 nM

biological target: Pro-Link-tagged Human GLP-1R (human, UniProt P43220 24-463); test: cell-based or functional assay

Binder	hGLP1R B-Arrestin2 % Top	hGLP1R B-Arrestin2 Rel EC50
B1	19.9%	41.4 nM
B2	28.4%	84.1 nM
B3	25.6%	12.3 nM
B4	21.2%	5.57 nM
B5	31.9%	18.1 nM
B6	21.3%	47.9 nM
B7	16.7%	5.32 nM
B8	–	> 10200 nM
B9	22.9%	9.54 nM
B10	29.5%	7.19 nM
B11	35%	13.7 nM
B12	24.2%	11.4 nM
B13	21.4%	9.38 nM
B14	34.7%	21.8 nM
B15	70.6%	6.66 nM
B16	29%	7.74 nM
B17	32.9%	9.81 nM
B18	23%	9.9 nM

Reference: patent publication US20220048967A1 (published 2022)
